Test results from patent US20220025056A1 (INNATE PHARMA, published 2022).
Where two headings read alike, the source gives them in different places.

How the values were obtained:
[1] = target: T1, anchored ILT2 D3 domain protein (human); assay: flow cytometry on CHO cells expressing the anchored ILT2 D3 domain protein (SEQ ID NO: 48); stacked histograms, axis without numbers, no control histogram
T1 construct: on CHO cells; the entry includes leader remnant, V5 tag and CD24 GPI anchor signal

[2] = target: T2, human ILT5 (LILRB3) on CHO cells (human, UniProt O75022 24-626); assay: flow cytometry, CHO transfectants
T2 construct: also called CHO ILT5 cell line

[3] = target: T3, human ILT8 (LILRA6) on CHO cells (human, UniProt Q6PI73 24-477); assay: flow cytometry, CHO transfectants
T3 construct: also called CHO ILT8 cell line

[4] = target: T4, human ILT4 (LILRB2) on CHO cells (human, UniProt Q8N423 23-597); assay: flow cytometry, CHO transfectants
T4 construct: also called CHO ILT4 cell line

[5] = target: T5, human ILT6 (LILRA3) on CHO cells (human, UniProt Q8N6C8 24-434); assay: flow cytometry, CHO transfectants
T5 construct: also called CHO ILT6 cell line; human ILT-6 polypeptide

[6] = target: T6, human ILT1 (LILRA2) on CHO cells (human, UniProt Q8N149 24-475); assay: flow cytometry, CHO transfectants
T6 construct: also called CHO ILT1 cell line

[7] = target: T7, human ILT3 (LILRB4) on CHO cells (human, UniProt Q8NHJ6 24-443); assay: flow cytometry, CHO transfectants
T7 construct: also called CHO ILT3 cell line

[8] = target: T8, human ILT7 (LILRA4) on CHO cells (human, UniProt P59901 28-494); assay: flow cytometry, CHO transfectants
T8 construct: also called CHO ILT7 cell line

[9] = target: T9, human ILT2 (LILRB1) expressed at the surface of transfected cells (human, UniProt Q8NHL6 24-650); assay: flow cytometry, CHO-ILT2 cells
T9 construct: also called CHO-ILT2; CHO ILT2 cell line
Description: Cells were incubated with various concentrations of unlabeled anti-ILT2 antibodies from 30 μg/ml to 5×10-⁴ μg/ml, for 30 minutes at 4° C. After washes with staining buffer, cells were incubated for 30 min at 4° C. with Goat anti-human H+L AF488 secondary antibody (Jackson Immunoresearch #109-546-088) or Goat anti-mouse H+L AF488 secondary antibody for commercially available antibodies (Jackson Immuoresearch #115-545-146). Fluorescence was measured on an Accury C6 flow cytometer equipped with an HTFC plate loader.

[10] = target: T10, ILT-2_6xHis recombinant protein (human, UniProt Q8NHL6 24-458); assay: SPR, antibody captured on Protein-A, soluble ILT2 analyte; two state fit
T10 construct: monomers purified by SEC; also called recombinant 6xHIS tagged ILT2; recombinant human ILT2 proteins
Description: Measurements were performed on a Biacore T200 apparatus (Biacore GE Healthcare) at 25° C. In all Biacore experiments HBS-EP+(Biacore GE Healthcare) and NaOH 10 mM served as running buffer and regeneration buffer respectively. Sensorgrams were analyzed with Biacore T100 Evaluation software. Protein-A was purchased from (GE Healthcare). Human ILT2 recombinant proteins were cloned, produced and purified at Innate Pharma. Protein-A proteins were immobilized covalently to carboxyl groups in the dextran layer on a Sensor Chip CM5. The chip surface was activated with EDC/NHS (N-ethyl-N′-(3-dimethylaminopropyl) carbodiimidehydrochloride and N-hydroxysuccinimide (Biacore GE Healthcare)). Protein-A was diluted to 10 μg/ml in coupling buffer (10 mM acetate, pH 5.6) and injected until the appropriate immobilization level was reached (i.e. 600 RU). Deactivation of the remaining activated groups was performed using 100 mM ethanolamine pH 8 (Biacore GE Healthcare). […] For blank subtraction, cycles were performed again replacing ILT2 proteins with running buffer. The monovalent affinity analysis was conducted following a regular Capture-Kinetic protocol as recommended by the manufacturer (Biacore GE Healthcare kinetic wizard). […]

ILT2 mutant 1 = target: T11, ILT2 mutant 1 (human, UniProt Q8NHL6 24-650); assay: flow cytometry titration on HEK293T cells transfected with ILT2 mutant 1
T11 construct: transfected in HEK293T cells; also called M1

ILT2 mutant 2 = target: T12, ILT2 mutant 2 (human, UniProt Q8NHL6 24-650); assay: flow cytometry titration on HEK293T cells transfected with ILT2 mutant 2
T12 construct: transfected in HEK293T cells; also called M2

[11] = target: T13, anchored ILT2 D4 domain protein (human, UniProt Q8NHL6 322-650); assay: flow cytometry on CHO cells expressing the anchored ILT2 D4 domain protein (SEQ ID NO: 49); stacked histograms, axis without numbers
T13 construct: on CHO cells; the entry includes leader remnant, V5 tag, and the ILT2 transmembrane and cytoplasmic parts

[12] = target: T14, anchored ILT2 D3-D4 domain protein (human, UniProt Q8NHL6 223-650); assay: flow cytometry, CHO cells with anchored ILT2 domain proteins
T14 construct: on CHO cells; the entry includes leader remnant, V5 tag, and the ILT2 transmembrane and cytoplasmic parts

[13] = target: T15, anchored ILT2 D2 domain protein (human); assay: as above
T15 construct: on CHO cells; the entry includes leader remnant, V5 tag and CD24 GPI anchor signal

[14] = target: T16, anchored ILT2 D2-D3-D4 domain protein (human, UniProt Q8NHL6 122-650); assay: as above
T16 construct: on CHO cells; the entry includes leader remnant, V5 tag, and the ILT2 transmembrane and cytoplasmic parts

[15] = target: T17, anchored ILT2 D2-D3 domain protein (human, UniProt Q8NHL6 122-321); assay: as above
T17 construct: on CHO cells; the entry includes leader remnant, V5 tag and CD24 GPI anchor signal

Mutant D4-1B = target: T18, Mutant D4-1B; assay: flow cytometry titration on HEK293T cells transfected with ILT2 mutant 4-1b
T18 construct: read as S304F; also called ILT2 mutant 4-1b; mutant 4-1b

ILT2 mutant 4-2 = target: T19, ILT2 mutant 4-2 (human, UniProt Q8NHL6 24-650); assay: flow cytometry titration on HEK293T cells transfected with ILT2 mutant 4-2
T19 construct: transfected in HEK293T cells

ILT2 mutant 4-1 = target: T20, ILT2 mutant 4-1 (human, UniProt Q8NHL6 24-650); assay: flow cytometry titration on HEK293T cells transfected with ILT2 mutant 4-1
T20 construct: transfected in HEK293T cells

[16] = target: T9, human ILT2 (LILRB1) expressed at the …; assay: flow cytometry titration on HEK293T cells transfected with wild-type ILT2
[17] = target: T21, human ILT2 on primary NK cells (human, UniProt Q8NHL6 24-650); assay: flow cytometry, primary NK cells
T21 construct: whole, on cells

[18] = target: T22, anchored ILT2 D1 domain protein (human); assay: flow cytometry on CHO cells expressing the anchored ILT2 D1 domain protein (SEQ ID NO: 46); stacked histograms, axis without numbers
T22 construct: on CHO cells; the entry includes leader remnant, V5 tag and CD24 GPI anchor signal

Mutant D4-4 = target: T23, Mutant D4-4; assay: flow cytometry titration on HEK293T cells transfected with ILT2 mutant 4-4
T23 construct: also called ILT2 mutant 4-4; mutant 4-4

[19] = target: T24, anchored ILT2 D1-D2 domain protein (human, UniProt Q8NHL6 24-222); assay: flow cytometry, CHO cells with anchored ILT2 domain proteins
T24 construct: on CHO cells; the entry includes leader remnant, V5 tag and CD24 GPI anchor signal

[20] = target: T25, anchored ILT2 D1-D2-D3 domain protein (human, UniProt Q8NHL6 24-321); assay: as above
T25 construct: on CHO cells; the entry includes leader remnant, V5 tag and CD24 GPI anchor signal

[21] = target: T21, human ILT2 on primary NK cells; assay: cell-based or functional assay
[22] = target: T10, ILT-2_6xHis recombinant protein; assay: SPR, antibody captured on Protein-A, soluble ILT2 analyte
Description: Measurements were performed on a Biacore T200 apparatus (Biacore GE Healthcare) at 25° C. In all Biacore experiments HBS-EP+(Biacore GE Healthcare) and NaOH 10 mM served as running buffer and regeneration buffer respectively. Sensorgrams were analyzed with Biacore T100 Evaluation software. Protein-A was purchased from (GE Healthcare). Human ILT2 recombinant proteins were cloned, produced and purified at Innate Pharma. Protein-A proteins were immobilized covalently to carboxyl groups in the dextran layer on a Sensor Chip CM5. The chip surface was activated with EDC/NHS (N-ethyl-N′-(3-dimethylaminopropyl) carbodiimidehydrochloride and N-hydroxysuccinimide (Biacore GE Healthcare)). Protein-A was diluted to 10 μg/ml in coupling buffer (10 mM acetate, pH 5.6) and injected until the appropriate immobilization level was reached (i.e. 600 RU). Deactivation of the remaining activated groups was performed using 100 mM ethanolamine pH 8 (Biacore GE Healthcare). […] For blank subtraction, cycles were performed again replacing ILT2 proteins with running buffer. The monovalent affinity analysis was conducted following a regular Capture-Kinetic protocol as recommended by the manufacturer (Biacore GE Healthcare kinetic wizard). Seven serial dilutions of human ILT2 proteins, ranging from 1.95 nM to 250 nM were sequentially injected over the captured antibodies and allowed to dissociate for 10 min before regeneration. The entire sensorgram sets were fitted using the 1:1 kinetic binding model or two state reaction model, as a function of the profile of the curves.

[23] = target: T9, human ILT2 (LILRB1) expressed at the …; assay: flow cytometry titration on HEK293T cells transfected with wild-type ILT2; remark: listed apart in the source

T2 sequence (O75022 other isoform, or with tags, fused parts or gaps): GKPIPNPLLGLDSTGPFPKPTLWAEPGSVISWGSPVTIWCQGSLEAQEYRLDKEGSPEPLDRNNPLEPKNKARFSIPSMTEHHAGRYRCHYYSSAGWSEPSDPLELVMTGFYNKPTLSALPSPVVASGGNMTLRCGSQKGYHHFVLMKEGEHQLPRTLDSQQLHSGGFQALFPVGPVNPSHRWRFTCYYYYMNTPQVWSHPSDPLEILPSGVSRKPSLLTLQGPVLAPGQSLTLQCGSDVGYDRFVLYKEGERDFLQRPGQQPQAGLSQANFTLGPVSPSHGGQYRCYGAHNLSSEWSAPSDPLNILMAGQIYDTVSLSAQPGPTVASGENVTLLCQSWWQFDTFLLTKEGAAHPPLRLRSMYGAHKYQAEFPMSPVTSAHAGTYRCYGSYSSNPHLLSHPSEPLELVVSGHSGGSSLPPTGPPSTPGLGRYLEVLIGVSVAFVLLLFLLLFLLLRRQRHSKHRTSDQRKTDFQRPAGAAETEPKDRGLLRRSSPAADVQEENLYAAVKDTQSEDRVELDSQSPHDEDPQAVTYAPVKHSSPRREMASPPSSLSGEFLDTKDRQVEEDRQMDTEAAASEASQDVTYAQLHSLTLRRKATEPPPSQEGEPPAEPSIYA
T3 sequence (Q6PI73 other isoform, or with tags, fused parts or gaps): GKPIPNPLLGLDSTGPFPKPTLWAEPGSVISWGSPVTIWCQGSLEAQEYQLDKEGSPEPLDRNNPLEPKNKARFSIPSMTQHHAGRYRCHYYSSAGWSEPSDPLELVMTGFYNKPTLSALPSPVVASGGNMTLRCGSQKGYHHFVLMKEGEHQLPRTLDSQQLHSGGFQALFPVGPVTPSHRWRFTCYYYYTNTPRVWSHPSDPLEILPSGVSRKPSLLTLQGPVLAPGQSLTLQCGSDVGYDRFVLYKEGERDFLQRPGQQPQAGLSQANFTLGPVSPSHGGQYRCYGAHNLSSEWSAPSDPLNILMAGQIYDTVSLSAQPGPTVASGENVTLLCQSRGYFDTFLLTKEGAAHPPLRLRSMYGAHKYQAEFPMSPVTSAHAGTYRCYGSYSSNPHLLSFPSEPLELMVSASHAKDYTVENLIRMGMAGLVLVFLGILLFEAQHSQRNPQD
T4 sequence (Q8N423 other isoform, or with tags, fused parts or gaps): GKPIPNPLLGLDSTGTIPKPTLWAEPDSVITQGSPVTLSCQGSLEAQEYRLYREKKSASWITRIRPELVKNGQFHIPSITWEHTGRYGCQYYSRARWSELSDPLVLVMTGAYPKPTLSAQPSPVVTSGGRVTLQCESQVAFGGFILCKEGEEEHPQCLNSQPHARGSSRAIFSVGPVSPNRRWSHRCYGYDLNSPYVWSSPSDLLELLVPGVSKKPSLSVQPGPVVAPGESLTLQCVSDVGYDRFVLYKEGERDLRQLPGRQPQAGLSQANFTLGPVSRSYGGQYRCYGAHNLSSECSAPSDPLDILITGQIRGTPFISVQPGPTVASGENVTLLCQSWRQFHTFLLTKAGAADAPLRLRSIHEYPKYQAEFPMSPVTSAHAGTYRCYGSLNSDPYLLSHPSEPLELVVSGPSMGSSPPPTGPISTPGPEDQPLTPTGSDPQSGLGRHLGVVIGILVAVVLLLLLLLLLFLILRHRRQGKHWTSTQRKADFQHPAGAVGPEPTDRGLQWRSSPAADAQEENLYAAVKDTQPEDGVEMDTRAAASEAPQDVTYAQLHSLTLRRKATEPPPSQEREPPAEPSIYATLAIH
T8 sequence (P59901 other isoform, or with tags, fused parts or gaps): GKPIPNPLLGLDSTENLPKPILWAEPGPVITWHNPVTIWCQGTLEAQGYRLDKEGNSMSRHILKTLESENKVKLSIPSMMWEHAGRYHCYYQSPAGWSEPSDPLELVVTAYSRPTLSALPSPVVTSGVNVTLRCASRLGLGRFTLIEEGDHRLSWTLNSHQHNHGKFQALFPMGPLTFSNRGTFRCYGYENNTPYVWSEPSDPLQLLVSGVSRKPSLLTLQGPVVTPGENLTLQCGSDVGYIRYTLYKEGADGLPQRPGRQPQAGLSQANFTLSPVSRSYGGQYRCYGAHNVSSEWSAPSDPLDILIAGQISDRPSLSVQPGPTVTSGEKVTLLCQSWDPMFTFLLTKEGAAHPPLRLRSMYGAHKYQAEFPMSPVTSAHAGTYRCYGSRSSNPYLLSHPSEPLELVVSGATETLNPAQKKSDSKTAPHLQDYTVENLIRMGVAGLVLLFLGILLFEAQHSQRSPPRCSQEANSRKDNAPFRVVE
T15 sequence (chain, as listed by the source limits assumed): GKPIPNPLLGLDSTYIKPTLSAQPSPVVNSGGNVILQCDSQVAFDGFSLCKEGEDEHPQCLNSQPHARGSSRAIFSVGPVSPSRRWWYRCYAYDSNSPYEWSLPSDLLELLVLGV
T10 sequence (Q8NHL6 other isoform, or with tags, fused parts or gaps limits assumed): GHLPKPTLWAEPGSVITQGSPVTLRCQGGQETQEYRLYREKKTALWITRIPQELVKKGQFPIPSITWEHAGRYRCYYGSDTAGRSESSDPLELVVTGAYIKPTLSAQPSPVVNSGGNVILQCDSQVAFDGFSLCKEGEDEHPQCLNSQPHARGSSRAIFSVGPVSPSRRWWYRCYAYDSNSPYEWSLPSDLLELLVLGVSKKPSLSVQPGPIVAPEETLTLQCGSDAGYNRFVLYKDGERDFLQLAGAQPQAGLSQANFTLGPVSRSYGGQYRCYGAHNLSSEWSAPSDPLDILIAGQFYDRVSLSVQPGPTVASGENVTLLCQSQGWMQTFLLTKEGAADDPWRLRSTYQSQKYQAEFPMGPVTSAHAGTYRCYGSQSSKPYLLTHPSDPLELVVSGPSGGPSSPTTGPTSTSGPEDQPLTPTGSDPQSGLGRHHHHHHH
T17 sequence (Q8NHL6 other isoform, or with tags, fused parts or gaps limits assumed): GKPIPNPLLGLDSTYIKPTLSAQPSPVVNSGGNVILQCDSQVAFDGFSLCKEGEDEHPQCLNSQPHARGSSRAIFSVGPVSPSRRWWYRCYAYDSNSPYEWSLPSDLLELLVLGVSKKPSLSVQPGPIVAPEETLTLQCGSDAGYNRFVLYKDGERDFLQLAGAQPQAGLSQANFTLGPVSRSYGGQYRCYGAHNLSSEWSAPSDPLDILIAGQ
T9 sequence (Q8NHL6 24-650): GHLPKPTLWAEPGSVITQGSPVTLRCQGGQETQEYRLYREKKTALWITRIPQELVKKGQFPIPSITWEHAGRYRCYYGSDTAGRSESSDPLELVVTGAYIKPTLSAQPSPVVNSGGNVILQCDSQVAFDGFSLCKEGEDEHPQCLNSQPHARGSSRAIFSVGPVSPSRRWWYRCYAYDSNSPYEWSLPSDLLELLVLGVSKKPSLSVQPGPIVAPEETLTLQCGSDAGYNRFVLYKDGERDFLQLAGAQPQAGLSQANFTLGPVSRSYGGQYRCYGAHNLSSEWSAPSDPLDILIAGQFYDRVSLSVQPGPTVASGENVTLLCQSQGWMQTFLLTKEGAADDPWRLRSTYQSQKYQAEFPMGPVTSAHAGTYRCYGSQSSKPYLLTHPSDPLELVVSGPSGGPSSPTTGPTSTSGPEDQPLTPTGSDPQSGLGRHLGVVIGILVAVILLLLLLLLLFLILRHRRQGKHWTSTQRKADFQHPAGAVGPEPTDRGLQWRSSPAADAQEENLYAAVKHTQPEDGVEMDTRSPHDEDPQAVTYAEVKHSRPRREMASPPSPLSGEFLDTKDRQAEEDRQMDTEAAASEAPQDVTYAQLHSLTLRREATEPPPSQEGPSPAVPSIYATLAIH
T21 sequence (Q8NHL6 24-650): as above
T1 sequence (chain, as listed by the source limits assumed): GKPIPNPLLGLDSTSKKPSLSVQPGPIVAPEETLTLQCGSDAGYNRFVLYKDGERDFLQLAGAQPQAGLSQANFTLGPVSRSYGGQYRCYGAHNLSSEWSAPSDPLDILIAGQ
T7 sequence (Q8NHJ6 other isoform, or with tags, fused parts or gaps): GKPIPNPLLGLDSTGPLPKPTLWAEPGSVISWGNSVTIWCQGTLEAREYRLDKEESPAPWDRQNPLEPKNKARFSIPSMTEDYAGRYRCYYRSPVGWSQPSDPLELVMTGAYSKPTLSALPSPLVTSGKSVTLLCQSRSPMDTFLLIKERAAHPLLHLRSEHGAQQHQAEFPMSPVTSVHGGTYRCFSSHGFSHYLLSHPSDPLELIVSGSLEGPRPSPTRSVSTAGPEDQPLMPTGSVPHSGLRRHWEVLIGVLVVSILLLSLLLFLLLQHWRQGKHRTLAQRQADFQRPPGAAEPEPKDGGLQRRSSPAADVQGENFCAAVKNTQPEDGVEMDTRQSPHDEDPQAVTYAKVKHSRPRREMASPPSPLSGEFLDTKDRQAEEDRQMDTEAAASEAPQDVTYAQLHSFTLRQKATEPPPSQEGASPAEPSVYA
T6 sequence (Q8N149 other isoform, or with tags, fused parts or gaps): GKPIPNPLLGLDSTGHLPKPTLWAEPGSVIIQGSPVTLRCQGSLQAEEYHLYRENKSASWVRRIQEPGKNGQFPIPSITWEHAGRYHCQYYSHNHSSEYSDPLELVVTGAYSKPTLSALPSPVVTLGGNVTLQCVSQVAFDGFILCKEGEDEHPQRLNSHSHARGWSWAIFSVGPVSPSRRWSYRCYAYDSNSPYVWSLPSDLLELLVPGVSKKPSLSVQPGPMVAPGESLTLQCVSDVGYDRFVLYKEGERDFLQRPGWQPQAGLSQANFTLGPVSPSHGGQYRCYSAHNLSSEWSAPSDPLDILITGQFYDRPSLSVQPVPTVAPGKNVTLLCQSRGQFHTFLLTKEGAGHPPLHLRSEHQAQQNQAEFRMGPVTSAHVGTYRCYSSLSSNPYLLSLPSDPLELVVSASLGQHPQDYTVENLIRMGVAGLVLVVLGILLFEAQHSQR
T13 sequence (Q8NHL6 other isoform, or with tags, fused parts or gaps limits assumed): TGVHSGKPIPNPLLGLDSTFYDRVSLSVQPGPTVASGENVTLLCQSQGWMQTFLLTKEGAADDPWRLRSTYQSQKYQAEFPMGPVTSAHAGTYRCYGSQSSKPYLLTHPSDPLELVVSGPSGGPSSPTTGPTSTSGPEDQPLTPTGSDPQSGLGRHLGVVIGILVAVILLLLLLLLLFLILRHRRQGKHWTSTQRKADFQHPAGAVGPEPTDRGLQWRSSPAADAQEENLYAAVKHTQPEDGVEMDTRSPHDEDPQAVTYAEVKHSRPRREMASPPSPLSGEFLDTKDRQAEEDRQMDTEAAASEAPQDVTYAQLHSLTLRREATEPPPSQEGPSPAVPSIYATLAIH

binding result [1]	binding result [2]	binding result [3]	binding result [4]	binding result [5]	binding result [6]	binding result [7]	binding result [8]	EC50 [9] [µg/mL]	Kd [10] [nM]	binding result (ILT2 mutant 1)	binding result (ILT2 mutant 2)	binding result [11]	binding result [12]	binding result [13]	binding result [14]	binding result [15]	binding result (Mutant D4-1B)	binding result (ILT2 mutant 4-2)	EC50 [17] [µg/mL]	Binder	other results
no binding	no binding	no binding	no binding	no binding	no binding	no binding	no binding	0.52	13.9	binds	no binding (tested: about 20 µg/ml)	no binding	no binding	no binding	no binding	no binding	–	–	–	27H5 (antibody, human IgG1, V domains shown) VH: QVQLKESGPGLVAPSQSLSITCTVSGFSLTSYGVSWVRQPPGKGLEWLGVIWGDGNTNYHSALISRLSISKDNSKSQVFLKLNSLQTDDTATYYCARTNWDGWFAYWGQGTLVTVSA VL: DIVMTQSHKFMSTSVGDRVSITCKASQDVGTAVAWYQQKPGQSPKLLIYWASTRHTGVPDRFTGSGSGTDFTLTISNVQSEDLADYFCQQYRSYPLGTFGGGTKLEIK	–
no binding	no binding	no binding	no binding	no binding	no binding	no binding	no binding	0.15	–	–	–	–	–	no binding	–	no binding	binds	no binding (tested: about 20 µg/ml)	0.11	26D8 (antibody, human IgG1, V domains shown) VH: QVQLQQSGAELVKPGASVKLSCKASGYTFTEHTIHWIKQRSGQGLEWIGWFYPGSGSMKYNEKFKDKATLTADKSSSTVYMELTRLTSEDSAVYFCARHTNWDFDYWGQGTTLTVSS VL: DIVLTQSPASLAVSLGQRATISCKASQSVDYGGDSYMNWYQQKPGQPPKLLIYAASNLESGIPARFSGSGSGTDLTLNIHPVEEDDAAMYYCQQSNEEPWTFGGGTKLEIK	binding result (ILT2 mutant 4-1): no binding (tested: about 20 µg/ml); EC50 (read off the curve) [16]: ~0.3 µg/mL; binding result [18]: no binding; EC50 (read off the curve) (Mutant D4-4): ~0.2 µg/mL; binding result [19]: no binding; binding result [20]: no binding; CD137 expression on ILT2-positive primary NK cells [21]: 2 fold; CD137 expression on NK cells of urothelial cancer patients with HLA-A2-expressing B cells [21]: > 2 fold; Kd [22]: 0.4 nM; koff [22]: 0.00022 s⁻¹; kon [22]: 620000 M⁻¹ s⁻¹
no binding	no binding	no binding	no binding	no binding	no binding	no binding	no binding	0.35	4.4	binds	no binding (tested: about 20 µg/ml)	no binding	no binding	no binding	no binding	no binding	–	–	0.48	3H5 (antibody, human IgG1, V domains shown) VH: QVQLKESGPGLVAPSQSLSITCTVSGFSLTSYGVSWVRQPPGKGLEWLGVIWGDGSTNYHSALISRLSISKDNSKSQVFLKLNSLQTDDTATYYCAKPRWDDYAMDYWGQGTSVTVSS VL: DIQMTQTTSSLSASLGDRVTISCRASQDISNYLNWYQQKPDGTVKLLIYYTSRLHSGVPSRFSGSGSGTDYSLTISNLEQEDIATYFCQQGNTLWTFGGGTKLEIK	EC50 (read off the curve) [23]: ~0.9 µg/mL
no binding	no binding	no binding	no binding	no binding	no binding	no binding	no binding	0.25	–	–	–	–	–	no binding	–	no binding	binds	binds	0.33	27C10 (antibody, human IgG1, V domains shown) VH: EVQLQESGPGLVKPSQSLSLTCSVTGYSITSGYYWNWIRQFPENKLEWMGYIRYDGSNNYNPSLNNRISITRDASKNQFFLKLNSVTTEDTATYYCARGWLLWFYAVDYWGQGTSVTVSS VL: DVVMTQTPLSLPVSLGDQASISCRSSQSIVHTNGNTYLEWYLQKSGQSPKLLIYKVSNRLSGVPDRFSGSGSGTDFTLKISRVEAEDLGIYYCFQGSHVPWTFGGGTKLEIK	EC50 (read off the curve) (ILT2 mutant 4-1): ~0.4 µg/mL; binding result [18]: no binding; binding result (Mutant D4-4): binds; binding result [19]: no binding; binding result [20]: no binding; koff [22]: 0.0003 s⁻¹
